Assays:
[1] = biological target: Androgen receptor full length (fAR) (UniProt P10275); test: footprint; conditions: 60% protection at 14 nM; cooperative, within enhancer fragment
[2] = biological target: Androgen receptor DNA-binding domain (ARDBD, aa 549-650) (Homo sapiens) (UniProt P10275); test: footprint; conditions: 75% occupancy at 1.4 uM
[3] = biological target: T1, Androgen receptor DNA-binding domain (ARDBD, aa 549-650) (Homo sapiens, UniProt P10275 P10275:550-651); test: affinity column; retained at 0.5 M KCl, eluted at 0.8 M KCl; conditions: tags: N-terminal His6, C-terminal heart muscle kinase site; E. coli; chain copies: 2; label: biotin
T1 sequence (P10275 550-651, one chain of several): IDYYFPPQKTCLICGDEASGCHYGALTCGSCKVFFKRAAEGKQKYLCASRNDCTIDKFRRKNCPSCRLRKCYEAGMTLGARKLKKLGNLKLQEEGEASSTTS
Description: The *Escherichia coli* strain BL21(DE3) was transformed with pET11dHis_6ARDBD. 0.1 liter of cells was grown to an $A600$ of 0.6 and induced with 0.5 mM isopropyl-1-thio-β-D-galactopyranoside and 10 μM ZnCl_2 for 3 h. After harvesting, cells were resuspended in 5 ml of Buffer A (20 mM HEPES, pH 7.9, 20% glycerol, 10 μM ZnCl_2, 0.5 mM phenylmethylsulfonyl fluoride) containing 0.1 M KCl and lysed by sonication. The supernatant was incubated with 1.5 ml of Ni-NTA-agarose (Qiagen) resin in batch, rocked gently for 30 min at 4° C., and then loaded on to a small Bio-Rad Econo-column. After successively washing the resin with 15 ml of Buffer A containing 0.1 M KCl, and 15 ml of Buffer A containing 0.1 M KCl and 20 mM imidazole, ARDBD was eluted with Buffer A containing 0.1 M KCl and 150 mM imidazole. […]

[4] = biological target: T1, Androgen receptor DNA-binding domain …; test: footprint; lower affinity than ARE III; conditions: tags: N-terminal His6, C-terminal heart muscle kinase site; E. coli; chain copies: 2
Description: The binding reactions for DNase I footprinting were as described previously (Chi et al., 1995). Indicated amounts of recombinant AR DNA binding domain (ARDBD), FLAG-tagged AR, and crude nuclear extracts from f-LNCaP cells were incubated in 13 μl of buffer containing 12.5 mM HEPES, pH 7.9, 12.5% glycerol, 5 mM MgCl_2, 70 mM KCl, 0.2 mM EDTA, 60 mM mercaptoethanol, 0.5 mg/ml bovine serum albumin, and 200 ng of poly(dG-dC). After 45 min at 30° C., DNase I was added to the reactions. The cleavage reactions were terminated after 1 min by addition of 100 μl of stop buffer containing 400 mM sodium acetate, pH 5.2, 0.2% SDS, 10 mM EDTA, 50 μg/ml yeast tRNA, and 100 μg/ml proteinase K. The mixtures were incubated at 50° C. for 15 min, extracted with phenol/chloroform, and the products precipitated with ethanol. Precipitates were dissolved in formamide loading buffer and analyzed on 8% polyacrylamide/urea sequencing gels. The cleavage ladders were visualized by exposure to XAR-5 film or by PhosphorImager analysis.
A ^32P-labeled PCR™ fragment from −4309 to −4011 of the enhancer was subjected to DNase I footprinting studies. […] A weak footprint was also noticed below site V that had not been detected with ARDBD in earlier experiments.

Androgen receptor full length (fAR), sequence (P10275 whole entry, the tested form may be a part): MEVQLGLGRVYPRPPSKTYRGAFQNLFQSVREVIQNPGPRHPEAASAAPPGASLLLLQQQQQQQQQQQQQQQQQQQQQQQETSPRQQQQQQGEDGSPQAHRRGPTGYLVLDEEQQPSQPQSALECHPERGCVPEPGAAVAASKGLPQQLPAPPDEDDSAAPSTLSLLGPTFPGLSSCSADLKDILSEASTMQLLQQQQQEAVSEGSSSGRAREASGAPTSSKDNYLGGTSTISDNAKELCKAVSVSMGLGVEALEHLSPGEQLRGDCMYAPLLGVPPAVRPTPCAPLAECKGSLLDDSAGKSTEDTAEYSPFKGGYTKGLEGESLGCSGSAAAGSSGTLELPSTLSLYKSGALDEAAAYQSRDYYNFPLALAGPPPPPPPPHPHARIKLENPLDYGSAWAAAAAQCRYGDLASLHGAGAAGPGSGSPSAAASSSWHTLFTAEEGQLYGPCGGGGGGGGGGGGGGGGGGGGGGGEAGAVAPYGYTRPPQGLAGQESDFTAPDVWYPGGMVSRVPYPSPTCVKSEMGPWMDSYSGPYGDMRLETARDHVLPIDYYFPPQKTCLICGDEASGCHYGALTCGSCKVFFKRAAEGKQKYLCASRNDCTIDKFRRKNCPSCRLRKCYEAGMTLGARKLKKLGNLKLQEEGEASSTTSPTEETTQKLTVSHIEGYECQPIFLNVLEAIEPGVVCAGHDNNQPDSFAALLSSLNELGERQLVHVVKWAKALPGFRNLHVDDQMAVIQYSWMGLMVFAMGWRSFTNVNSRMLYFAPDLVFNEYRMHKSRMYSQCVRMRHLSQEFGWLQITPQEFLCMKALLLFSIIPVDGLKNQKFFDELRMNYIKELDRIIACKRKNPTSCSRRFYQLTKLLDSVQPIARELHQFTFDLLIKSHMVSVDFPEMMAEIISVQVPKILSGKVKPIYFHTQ
Androgen receptor DNA-binding domain (ARDBD, aa 549-650) (Homo sapiens), sequence (P10275 550-651): as the sequence (P10275 550-651, one chain of several) above

PSA enhancer ARE IV
K half [1]: < 14 nM

PSA enhancer ARE V
K half [2]: < 1400 nM
K half [1]: < 14 nM

B1: biotinylated ARE affinity oligonucleotide (dsDNA)
DNA 1: TTTCCTTGCAGTACAGCATGTTCTAGC
DNA 2: GCTAGAACATGCTGTACTGCAAGGAAA
binding result [3]: binds

B2: PSA enhancer ARE VI (dsDNA)
DNA 1: GGATGCTGTGCACAC
DNA 2: GTGTGCACAGCATCC
binding result [4]: binds

Source: US7267978, “Chimeric transcriptional regulatory element compositions and methods for increasing prostate-targeted gene expression” (The Regents of the University of California)
